# Target: the molecule itself
# Assay: split reporter
protein,measurement,value
Cdc10 (natural protein) MDPLSSVQPASYVGFDTITNQIEHRLLKKGFQFNIMVVGQSGLGKSTLINTLFASHLIDSATGDDISALPVTKTTEMKISTHTLVEDRVRLNINVIDTPGFGDFIDNSKAWEPIVKYIKEQHSQYLRKELTAQRERFITDTRVHAILYFLQPNGKELSRLDVEALKRLTEIANVIPVIGKSDTLTLDERTEFRELIQNEFEKYNFKIYPYDSEELTDEELELNRSVRSIIPFAVVGSENEIEINGETFRGRKTRWSAINVEDINQCDFVYLREFLIRTHLQDLIETTSYIHYEGFRARQLIALKENANSRSSAHMSSNAIQR,"fluorescence at the bud neck, fold over the negative controls",> 20 fold
